1 substance from article doi:10.1101/403360 can be followed below.

Assay [1] deals with wild type GluN2A C-terminus peptide (…). Nature of the assay: SPR. (Surface plasmon resonance follows binding to a sensor surface in real time, without labels.)
Assay [2] has as its target wild type GluN2B C-terminus peptide (…). Nature of the assay: SPR.

With “isolated FRMPD2 PDZ2 domain (from UniProt A0A140LI67 934-1027) (domain or fragment)”, the Kd in assay [1] stood at 0.31 µM; in assay [2], 250 µM.

Usually Kd stands for the equilibrium constant for the complex coming apart. Lower therefore signals tighter binding.
